These results are taken from article PMC7480108.

The target in one assay is GST-FGD1^18-335 (UniProt P52734). Nature of the assay: pull-down; GST-tagged FGD1 fragment (2 µM) immobilised on Glutathione Sepharose 4B beads, incubated with MDA-MB-231 cell lysates (untransfected or transfected with TKS5^GFP constructs) 2 h at 4°C; 50 mM Tris-HCl pH 7.5, 150 mM NaCl, 0.5 mM EDTA, 10 mM MgCl2, 10% glycerol, 0.7% NP-40; immunoblotting.
In assay [1] the target is endogenous FGD1 (faciogenital dysplasia protein 1) (UniProt P98174). Description: co-immunoprecipitation (anti-GFP nanobody, GFP-Trap) with FGD1 immunoblot. Particulars: lysates of MDA-MB-231 cells; 1% of total lysate loaded as input; parent: 100. (In general: A western blot detects proteins with antibodies after separation by electrophoresis.)
In a further assay the target is TKS5^GFPW1092A (human). Description: co-IP; GFP-Trap (anti-GFP nanobody beads) from NP-40 lysates of MDA-MB-231 cells expressing GFP-tagged constructs, 1 h 4°C; immunoblotting of bound proteins.

UniProt P52734, sequence (P52734 18-335): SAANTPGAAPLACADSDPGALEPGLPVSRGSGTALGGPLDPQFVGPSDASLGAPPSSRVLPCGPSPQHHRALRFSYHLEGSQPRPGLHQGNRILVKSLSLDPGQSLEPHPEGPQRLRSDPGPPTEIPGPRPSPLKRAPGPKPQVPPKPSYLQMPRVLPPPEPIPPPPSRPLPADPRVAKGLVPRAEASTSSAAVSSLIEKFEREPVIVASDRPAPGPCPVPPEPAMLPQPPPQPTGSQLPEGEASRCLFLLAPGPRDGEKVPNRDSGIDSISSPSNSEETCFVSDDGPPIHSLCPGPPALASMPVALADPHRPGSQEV

On to TKS5^GFP (natural protein), for which the percent of the input pulled down (% of the input) with GST-FGD1^18-335 came to 1.35.

For TKS5_324-1118^GFP (domain or fragment), the percent of the input pulled down (% of the input) in the assay with GST-FGD1^18-335 is 2.85.

Consider TKS5^GFP W861A, for which the percent of parent (% of wild-type TKS5) in assay [1] was 91.

B1: endogenous FGD1 (faciogenital dysplasia protein 1) (natural protein)
chain: MHGHRAPGGAGPSEPEHPATNPPGAAPPACADSDPGASEPGLLARRGSGSALGGPLDPQFVGPSDTSLGAAPGHRVLPCGPSPQHHRALRFSYHLEGSQPRPGLHQGNRILVKSLSLDPGQSLEPHPEGPQRLRSDPGPPTETPSQRPSPLKRAPGPKPQVPPKPSYLQMPRMPPPLEPIPPPPSRPLPADPRVAKGLAPRAEASPSSAAVSSLIEKFEREPVIVASDRPVPGPSPGPPEPVMLPQPTSQPPVPQLPEGEASRCLFLLAPGPRDGEKVPNRDSGIDSISSPSNSEETCFVSDDGPPSHSLCPGPPALASVPVALADPHRPGSQEVDSDLEEEDDEEEEEEKDREIPVPLMERQESVELTVQQKVFHIANELLQTEKAYVSRLHLLDQVFCARLLEEARNRSSFPADVVHGIFSNICSIYCFHQQFLLPELEKRMEEWDRYPRIGDILQKLAPFLKMYGEYVKNFDRAVELVNTWTERSTQFKVIIHEVQKEEACGNLTLQHHMLEPVQRIPRYELLLKDYLLKLPHGSPDSKDAQKSLELIATAAEHSNAAIRKMERMHKLLKVYELLGGEEDIVSPTKELIKEGHILKLSAKNGTTQDRYLILFNDRLLYCVPRLRLLGQKFSVRARIDVDGMELKESSNLNLPRTFLVSGKQRSLELQARTEEEKKDWVQAINSTLLKHEQTLETFKLLNSTNREDEDTPPNSPNVDLGKRAPTPIREKEVTMCMRCQEPFNSITKRRHHCKACGHVVCGKCSEFRARLVYDNNRSNRVCTDCYVALHGVPGSSPACSQHTPQRRRSILEKQASVAAENSVICSFLHYMEKGGKGWHKAWFVVPENEPLVLYIYGAPQDVKAQRSLPLIGFEVGPPEAGERPDRRHVFKITQSHLSWYFSPETEELQRRWMAVLGRAGRGDTFCPGPTLSEDREMEEAPVAALGATAEPPESPQTRDKT
In the assay with TKS5^GFPW1092A (human), B1 registered a percent of the wild-type TKS5 binding capacity (% of wild type) of 10.
